Legend:
CXCL12 levels [1] = system: CXCL12 levels; set-up: method as in PMID 33595155, PMID 38819698; details: mice, in vivo application; cited from earlier work
CXCL12 levels [2] = details: humans; cited from earlier work
[3] = target: hCCR3 C-terminally tagged with SmBiT (chemokine receptor screen) (human) (UniProt P51677)
CCR3 = CCR3 (Homo sapiens, UniProt P51677); assay: NanoBiT β-arrestin2 recruitment to CCR3, concentration-response; format: cell-based; details: HEK293T, NanoBiT
Protocol: The pharmacological modulation of all chemokine receptors by VUF16840 was performed according to an established method.[8]^,[23]^,[39] Briefly, β-arrestin2 recruitment to chemokine receptors in response to 1 μM VUF16840 or positive control chemokines was monitored by NanoLuc complementation assay (NanoBiT, Promega). Four hours after transfection, cells were harvested, incubated for 25 minutes at 37 °C with furimazine and distributed into a white 96-well plates (1 × 10^5 cells per well). β-Arrestin2 recruitment was then detected for 20 minutes upon treatment with 1 μM VUF16840 (or increasing concentrations ligand for experiments with CC chemokine receptor [CCR3]) using the Mithras LB940 luminometer (Berthold Technologies). To evaluate the antagonist properties of VUF16840, full agonists of each receptor were added after the 20-minute incubation with VUF16840. Signal from wells treated with full agonist only was defined as 100% activity and signals from wells treated with no agonist were used to set 0% activity.
Supplemental Figure 5 – Modulation of CCR3 receptor by VUF16840. Recruitment of β-arrestin2 towards CCR3 chemokine receptor was measured using a NLuc complementation assay in HEK293T cells. The concentration-dependent activation of the CCR3 was determined for VUF16840 and the endogenous agonist CCL13. All values depict the mean ± SD of ≥ 3 experiments.

ACKR3 [4] = target: T1, ACKR3 (Homo sapiens, UniProt P25106); assay: BRET β-arrestin2 recruitment to hACKR3 in HEK293T cells; format: cell-based; details: * VUF16840 as inverse agonist; mean ± SD (N)
T1 construct: expressed in transfected cells; host or cells: HEK293T
T1 sequence (P25106 whole entry): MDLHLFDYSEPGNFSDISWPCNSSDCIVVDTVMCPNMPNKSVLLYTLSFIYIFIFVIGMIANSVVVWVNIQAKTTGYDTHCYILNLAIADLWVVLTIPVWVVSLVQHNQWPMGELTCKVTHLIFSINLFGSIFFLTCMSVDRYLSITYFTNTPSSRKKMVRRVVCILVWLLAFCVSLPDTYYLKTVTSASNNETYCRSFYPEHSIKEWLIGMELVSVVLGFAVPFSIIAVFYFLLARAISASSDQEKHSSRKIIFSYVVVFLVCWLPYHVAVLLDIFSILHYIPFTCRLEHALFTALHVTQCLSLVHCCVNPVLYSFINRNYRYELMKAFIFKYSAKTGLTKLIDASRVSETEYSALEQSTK
Protocol: (§1) For bioluminescence resonance energy transfer (BRET) experiments, several BRET acceptor constructs were used that consist of the pcDEF3 vector with either GRK2 (NCBI: NM_174710.2), β-arrestin1 (NCBI: NM_174243.3), or β-arrestin2 (NCBI: XM_005220181.4) fused at the C-terminus with a SpeI/NotI linker to mVenus (NCBI: KP666136.1), as previously described.[34]
(§2) For 1·10^6 HEK293T cells, a transfection mix consisting of 2 μg plasmid DNA, 12 μg linear PEI in a total volume of 200 μL 150 mM NaCl was made and thoroughly vortexed. The transfection mix was incubated for 15 minutes and consequently added to a cell suspension with a final concentration of 3·10^5 cells/mL. For functional studies this cell suspension was immediately transferred to a poly-L-lysine-coated white 96-well plate, with 3·10^4 cells per well. […] For BRET-based membrane localization experiments, the 2 μg plasmid DNA consisted of ACKR3-NL (0.05 μg), mVenus-CAAX (0.25 μg), and pcDEF3 vector DNA without insert (1.7 μg).
(§3) Mean pIC50 values were determined by averaging fitted values from individual experiments. Graphs depict the pooled data of all experiments. Similarly, sigmoidal, ligand-induced concentration-dependent activation or inhibition of the proximity between ACKR3 and the protein of interest was analyzed using GraphPad Prism 8, by fitting a 3-parameter concentration-response model to the data, to determine pEC50/pIC50 values. Mean pEC50 values and pIC50 values were determined by averaging fitted values from individual experiments. Graphs depict the pooled data of all experiments, for which values are normalized, per experiment, to the fold difference compared with basal signal.

ACKR3 [5] = target: T1, ACKR3; assay: BRET β-arrestin1 recruitment to ACKR3 in HEK293T cells; format: cell-based; details: * VUF16840 as inverse agonist
Protocol: as §1, §2, §3
HEK293T cells were stimulated with increasing concentrations of VUF15485 or VUF16840 only (A–D), or increasing concentrations of VUF16840 in the presence of 100 nM VUF15485 (E–H). The resulting proximity between ACKR3 and β-arrestin1 (A, E), GRK2 (B, F), or Rab5a (C, G) was determined by bioluminescence resonance energy transfer. Furthermore, an interaction between clathrin A and β-arrestin2 was measured by NLuc complementation, as was determined by quantifying the relative light units (D, H). Depicted data is normalized as fold-basal and represents the mean ± SD of N experiments with triplicate measurements per experiment. N is specified in Supplemental Table 1.

[6] = target: hACKR3-SmBiT (HA-tagged ACKR3 C-terminally fused to SmBiT) (human) (UniProt P25106)
Chain of hACKR3-SmBiT (HA-tagged ACKR3 C-terminally fused to SmBiT) (human) (P25106 whole entry, the tested form may be a part): as the sequence (P25106 whole entry) above

[7] = target: N-terminally NLuc-tagged hACKR3 (human) (UniProt P25106)
Chain of N-terminally NLuc-tagged hACKR3 (human) (P25106 whole entry): as above

Chain of CCR3 (P51677 whole entry): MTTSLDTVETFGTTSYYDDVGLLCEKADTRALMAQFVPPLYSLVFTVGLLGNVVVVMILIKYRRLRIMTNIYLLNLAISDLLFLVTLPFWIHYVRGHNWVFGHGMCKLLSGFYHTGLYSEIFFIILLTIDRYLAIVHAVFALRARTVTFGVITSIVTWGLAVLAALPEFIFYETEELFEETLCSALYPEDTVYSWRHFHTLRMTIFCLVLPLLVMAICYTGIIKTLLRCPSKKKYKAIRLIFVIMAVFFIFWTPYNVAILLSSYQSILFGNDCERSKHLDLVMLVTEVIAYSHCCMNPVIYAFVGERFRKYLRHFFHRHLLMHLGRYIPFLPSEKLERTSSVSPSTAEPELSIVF
Chain of CCR3 (P32121 whole entry partner): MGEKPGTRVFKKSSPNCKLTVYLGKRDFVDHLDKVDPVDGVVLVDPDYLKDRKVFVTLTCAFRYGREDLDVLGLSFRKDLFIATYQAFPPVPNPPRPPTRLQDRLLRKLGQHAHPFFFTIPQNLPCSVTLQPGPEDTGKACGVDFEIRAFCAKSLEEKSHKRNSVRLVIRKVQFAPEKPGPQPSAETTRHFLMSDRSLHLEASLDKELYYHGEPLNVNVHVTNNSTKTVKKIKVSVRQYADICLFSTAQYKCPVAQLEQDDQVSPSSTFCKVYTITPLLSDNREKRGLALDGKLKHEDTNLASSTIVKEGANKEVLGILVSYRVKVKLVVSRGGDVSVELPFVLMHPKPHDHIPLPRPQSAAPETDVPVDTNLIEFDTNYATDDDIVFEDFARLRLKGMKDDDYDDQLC
Chain of Human recombinant CXCL12 (P48061 22-93): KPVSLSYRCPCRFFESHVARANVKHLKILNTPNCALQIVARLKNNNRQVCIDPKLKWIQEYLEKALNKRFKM
Chain of hCCR3 C-terminally tagged with SmBiT (chemokine receptor screen) (human) (P51677 whole entry): as the sequence (P51677 whole entry) above
Chain of CCL13 (Q99616 17-98): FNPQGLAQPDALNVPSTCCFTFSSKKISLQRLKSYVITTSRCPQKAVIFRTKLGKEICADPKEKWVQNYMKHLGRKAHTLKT

O=C(N[C@H]1CCN(CC2CC2)C[C@@H]1C(=O)NC1(c2ncccn2)CC1)c1cc(-c2ccc(F)cc2F)on1 [ACT1004-1239]
plasma and brain CXCL12 levels (CXCL12 levels [1]): increase | plasma CXCL12 levels (CXCL12 levels [2]): increase

CCL13 (from UniProt Q99616 17-98) (ligand)
β-arrestin2 recruitment to CCR3 (NanoBiT, HEK293T), EC50 of CCL13 [3]: 63 nM

CCL13: endogenous ligand (agonist) of CCR3
pEC50, activation of CCR3 (β-arrestin2 recruitment) (CCR3): 7.2 ± 0.1 | EC50 (CCR3; read-out: EC50, activation of CCR3 (β-arrestin2 recruitment)): 63 nM

CXCL11: human recombinant chemokine, endogenous agonist of ACKR3
β-arrestin2 BRET pEC50 (ACKR3 [4]): 8.2 ± 0.1 (3) | β-arrestin1 BRET pEC50 (ACKR3 [5]): 8.1 ± 0.1 (6)

Human recombinant CXCL12 (from UniProt P48061 22-93) (ligand)
β-arrestin2 recruitment to hACKR3 (NanoBiT, HEK293T, concentration-response after 30 minutes), EC50 of CXCL12 [6]: 1.6 nM | bystander BRET between ACKR3-NLuc (C-terminal NLuc, not the construct of m2) and plasma membrane mVenus-CAAX in HEK293T cells (receptor internalization), pIC50 of CXCL12 [7]: 9.1 pIC50

Reference: publication PMC12799421, “Inhibition of constitutive activity of the atypical chemokine receptor 3 by the small-molecule inverse agonist VUF16840” (Molecular Pharmacology, 2025)
